Results from the supplement of paper PMC6379048.

Tests used:
Test in all cases: Kd (EC50 corrected by depletion factor)
SKIV2L2 = molecular target: T1, SKIV2L2 (UniProt P42285)
T1 sequence: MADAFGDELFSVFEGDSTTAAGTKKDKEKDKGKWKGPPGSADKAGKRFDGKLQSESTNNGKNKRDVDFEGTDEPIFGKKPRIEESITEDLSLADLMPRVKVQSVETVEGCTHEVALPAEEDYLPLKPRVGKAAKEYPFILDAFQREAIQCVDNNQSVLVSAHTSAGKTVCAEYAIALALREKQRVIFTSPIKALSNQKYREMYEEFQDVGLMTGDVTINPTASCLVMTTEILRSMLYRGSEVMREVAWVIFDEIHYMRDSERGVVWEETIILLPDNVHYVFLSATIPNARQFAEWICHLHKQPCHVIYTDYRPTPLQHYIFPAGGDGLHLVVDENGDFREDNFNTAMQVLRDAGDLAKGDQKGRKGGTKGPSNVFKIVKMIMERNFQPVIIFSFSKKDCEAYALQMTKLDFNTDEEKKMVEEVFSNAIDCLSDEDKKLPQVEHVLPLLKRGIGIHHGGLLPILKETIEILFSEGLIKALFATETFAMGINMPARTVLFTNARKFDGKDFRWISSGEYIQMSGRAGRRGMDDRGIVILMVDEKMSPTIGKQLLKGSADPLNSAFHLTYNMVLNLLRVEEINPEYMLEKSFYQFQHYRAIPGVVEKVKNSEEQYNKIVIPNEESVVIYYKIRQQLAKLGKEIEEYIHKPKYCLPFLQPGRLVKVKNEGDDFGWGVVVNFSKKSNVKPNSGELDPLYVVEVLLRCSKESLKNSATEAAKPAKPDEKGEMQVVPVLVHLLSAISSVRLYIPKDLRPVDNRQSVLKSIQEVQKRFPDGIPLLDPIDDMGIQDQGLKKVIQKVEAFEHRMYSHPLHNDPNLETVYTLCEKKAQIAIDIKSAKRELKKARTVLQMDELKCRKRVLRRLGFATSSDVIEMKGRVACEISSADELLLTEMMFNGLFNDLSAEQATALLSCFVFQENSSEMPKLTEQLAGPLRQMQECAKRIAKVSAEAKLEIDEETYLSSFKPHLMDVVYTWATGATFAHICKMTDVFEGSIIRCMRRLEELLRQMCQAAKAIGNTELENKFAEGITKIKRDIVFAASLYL
Method: (§1)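 Competition-binding assay: HEK293-FT cell lysate (2.5 mg protein) pre-incubated 1 h at 4°C with free motif-containing RNA oligos (0 to 30 µM, 12 doses), then pulled down with the same 5'-amino-C6 RNA oligos immobilised on NHS-Sepharose beads (30 min, 4°C). Bound proteins were quantified by label-free LC-MS/MS and normalised to the water control. EC50 came from a four-parameter log-logistic fit; Kd = EC50 x depletion factor. Random/reversed control probes are dropped.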

DHX36 = molecular target: T2, DHX36 (UniProt Q9H2U1)
T2 sequence: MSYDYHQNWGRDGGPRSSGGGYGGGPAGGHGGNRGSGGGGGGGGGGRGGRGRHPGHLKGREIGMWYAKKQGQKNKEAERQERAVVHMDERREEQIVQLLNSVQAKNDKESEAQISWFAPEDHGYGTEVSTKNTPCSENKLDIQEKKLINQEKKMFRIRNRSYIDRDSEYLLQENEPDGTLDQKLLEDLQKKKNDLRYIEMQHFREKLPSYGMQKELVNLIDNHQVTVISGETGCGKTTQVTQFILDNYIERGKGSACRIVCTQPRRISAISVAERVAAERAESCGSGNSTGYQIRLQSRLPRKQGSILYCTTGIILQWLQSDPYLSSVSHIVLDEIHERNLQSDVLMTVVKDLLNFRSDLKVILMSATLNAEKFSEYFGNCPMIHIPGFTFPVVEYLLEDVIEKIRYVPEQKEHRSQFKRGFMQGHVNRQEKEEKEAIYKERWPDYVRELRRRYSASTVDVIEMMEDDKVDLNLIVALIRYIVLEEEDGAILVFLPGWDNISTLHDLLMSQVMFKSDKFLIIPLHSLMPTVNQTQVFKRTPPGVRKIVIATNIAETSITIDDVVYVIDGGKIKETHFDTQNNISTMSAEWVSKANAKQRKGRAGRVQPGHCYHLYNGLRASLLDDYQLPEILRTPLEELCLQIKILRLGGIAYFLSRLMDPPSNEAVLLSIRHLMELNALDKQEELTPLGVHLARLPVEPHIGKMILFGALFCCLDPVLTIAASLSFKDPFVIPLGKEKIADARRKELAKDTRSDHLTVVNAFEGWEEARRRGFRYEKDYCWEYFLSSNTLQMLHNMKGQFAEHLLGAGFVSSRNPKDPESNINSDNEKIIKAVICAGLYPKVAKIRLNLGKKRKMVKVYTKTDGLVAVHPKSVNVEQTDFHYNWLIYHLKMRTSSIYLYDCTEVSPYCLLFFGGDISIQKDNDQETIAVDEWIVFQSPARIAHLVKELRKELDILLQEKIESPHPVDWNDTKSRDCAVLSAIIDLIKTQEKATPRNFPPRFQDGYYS
Method: as §1

PHAX = PHAX (UniProt Q9H814)
PHAX, sequence (Q9H814 whole entry): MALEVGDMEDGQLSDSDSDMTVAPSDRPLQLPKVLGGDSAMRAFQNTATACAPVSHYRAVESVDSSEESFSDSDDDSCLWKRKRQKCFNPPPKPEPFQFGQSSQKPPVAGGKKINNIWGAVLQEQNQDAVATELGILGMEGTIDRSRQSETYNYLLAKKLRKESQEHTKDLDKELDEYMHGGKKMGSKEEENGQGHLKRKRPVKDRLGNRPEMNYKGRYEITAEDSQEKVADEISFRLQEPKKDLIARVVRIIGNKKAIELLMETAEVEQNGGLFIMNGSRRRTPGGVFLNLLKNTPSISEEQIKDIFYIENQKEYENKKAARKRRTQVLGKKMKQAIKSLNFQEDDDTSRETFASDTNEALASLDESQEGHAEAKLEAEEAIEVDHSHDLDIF
Method: as §1

Sequence	Kd (SKIV2L2) [nM]	Kd (DHX36) [nM]	Kd (PHAX) [nM]
AAUAAA	393	573	15500
CUGUCCU	2450	1850	533
UAUUUAU	202	632	5070
